Assay results as given in FireProtDB (doi:10.1021/bi00014a029).

Details: Meleagris gallopavo, Thermal, Potassium phosphate/Potassium acetate 10 mM/10 mM/
[1] = pH 1.5, CD, reversible: yes (82%)
[2] = pH 1.99, DSC, reversible: yes (91%)
[3] = pH 2.1, CD, reversible: yes (89%)
[4] = pH 2.5, CD, reversible: yes (85%)
[5] = pH 2.52, DSC, reversible: yes (90%)
[6] = pH 2.56, DSC, reversible: yes (78%)
[7] = pH 3.46, DSC, reversible: yes (90%)
[8] = pH 3.48, DSC, reversible: yes (81%)
[9] = pH 3.94, DSC, reversible: yes (87%)
[10] = pH 4.51, DSC, reversible: yes (84%)
[11] = pH 4.96, DSC, reversible: yes (100%)

Sequence of Ovomucoid wild type, P68390 (P68390 whole entry): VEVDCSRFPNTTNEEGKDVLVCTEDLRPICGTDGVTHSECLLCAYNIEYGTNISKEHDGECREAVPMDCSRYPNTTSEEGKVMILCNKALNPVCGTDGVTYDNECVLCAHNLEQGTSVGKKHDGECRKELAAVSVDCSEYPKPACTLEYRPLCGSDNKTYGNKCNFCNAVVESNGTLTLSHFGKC

Substance: Ovomucoid wild type, P68390
- Tm [1]: 60.5 °C
- unfolding enthalpy (van 't Hoff) [1]: 40.9 kcal/mol
- Tm [2]: 63.1 °C
- unfolding enthalpy (calorimetric) [2]: 44.2 kcal/mol
- unfolding enthalpy (van 't Hoff) [2]: 44.6 kcal/mol
- Tm [3]: 62.7 °C
- unfolding enthalpy (van 't Hoff) [3]: 42.8 kcal/mol
- Tm [4]: 66.2 °C
- unfolding enthalpy (van 't Hoff) [4]: 43.7 kcal/mol
- Tm [5]: 68.5 °C
- unfolding enthalpy (calorimetric) [5]: 47.7 kcal/mol
- unfolding enthalpy (van 't Hoff) [5]: 49.2 kcal/mol
- Tm [6]: 65.7 °C
- unfolding enthalpy (calorimetric) [6]: 45.4 kcal/mol
- unfolding enthalpy (van 't Hoff) [6]: 45.4 kcal/mol
- Tm [7]: 78.7 °C
- unfolding enthalpy (calorimetric) [7]: 48.1 kcal/mol
- unfolding enthalpy (van 't Hoff) [7]: 49.6 kcal/mol
- Tm [8]: 78.7 °C
- unfolding enthalpy (calorimetric) [8]: 50 kcal/mol
- unfolding enthalpy (van 't Hoff) [8]: 51 kcal/mol
- Tm (pH 3.51, DSC): 80.8 °C
- unfolding enthalpy (calorimetric) (pH 3.51, DSC): 55 kcal/mol
- unfolding enthalpy (van 't Hoff) (pH 3.51, DSC): 57.9 kcal/mol
- Tm [9]: 85.7 °C
- unfolding enthalpy (calorimetric) [9]: 55.3 kcal/mol
- unfolding enthalpy (van 't Hoff) [9]: 52.7 kcal/mol
- Tm [10]: 85.2 °C
- unfolding enthalpy (calorimetric) [10]: 57.4 kcal/mol
- unfolding enthalpy (van 't Hoff) [10]: 56.3 kcal/mol
- Tm [11]: 87.8 °C
- unfolding enthalpy (calorimetric) [11]: 62.4 kcal/mol
